B1: peptide HD2 (from tick evasin EVA4) / CCL18 (biotinylated, synthetic) (parent complex)
chain 1: EEDDYTAYAPLTCYFT
chain 2: AQVGTNKELCCLVYTSWQIPQKFIVDYSETSPQCPKPGVILLTKRGRQICADPNKKWVQKYISDLKLNA

Variants of: B1

| Variant | enrichment |
| --- | --- |
| chain 1 L11K | -1.3 log2 (difference from the parental peptide) |
| chain 1 L11M | 2.39 log2 (difference from the parental peptide) |
| chain 1 L11R | -0.679 log2 (difference from the parental peptide) |
| chain 1 L11A | 0.458 log2 (difference from the parental peptide) |
| chain 1 L11C | 1.6 log2 (difference from the parental peptide) |
| chain 1 L11N | -3.89 log2 (difference from the parental peptide) |
| chain 1 L11S | -0.148 log2 (difference from the parental peptide) |
| chain 1 Y14N | -4.78 log2 (difference from the parental peptide) |
| chain 1 Y14H | -1.38 log2 (difference from the parental peptide) |
| chain 1 Y14V | -1.51 log2 (difference from the parental peptide) |
| chain 1 Y14S | -3.46 log2 (difference from the parental peptide) |
| chain 1 Y14E | -4.21 log2 (difference from the parental peptide) |
| chain 1 Y14Q | -3.29 log2 (difference from the parental peptide) |
| chain 1 Y14M | -2.78 log2 (difference from the parental peptide) |
| chain 1 Y14K | -6.36 log2 (difference from the parental peptide) |
| chain 1 Y14D | -5.4 log2 (difference from the parental peptide) |
| chain 1 Y14F | 0.0351 log2 (difference from the parental peptide) |
| chain 1 Y14W | -1.23 log2 (difference from the parental peptide) |
| chain 1 Y14C | -8.51 log2 (difference from the parental peptide) |
| chain 1 C13N | -8.4 log2 (difference from the parental peptide) |
| chain 1 C13R | -9.16 log2 (difference from the parental peptide) |
| chain 1 C13T | -9.42 log2 (difference from the parental peptide) |
| chain 1 C13F | -5.66 log2 (difference from the parental peptide) |
| chain 1 C13Q | -9.57 log2 (difference from the parental peptide) |
| chain 1 C13I | -5.57 log2 (difference from the parental peptide) |

| Variant | enrichment |
| --- | --- |
| chain 1 E1P | -2.16 log2 (difference from the parental peptide) |
| chain 1 E1S | -0.81 log2 (difference from the parental peptide) |
| chain 1 E1N | -0.496 log2 (difference from the parental peptide) |
| chain 1 E1L | -1.91 log2 (difference from the parental peptide) |
| chain 1 E1K | -3.68 log2 (difference from the parental peptide) |
| chain 1 E1M | -0.0267 log2 (difference from the parental peptide) |
| chain 1 E1R | -3.04 log2 (difference from the parental peptide) |
| chain 1 E1I | -1.17 log2 (difference from the parental peptide) |
| chain 1 E1Y | -1.67 log2 (difference from the parental peptide) |
| chain 1 F15K | -0.831 log2 (difference from the parental peptide) |
| chain 1 F15E | -2.62 log2 (difference from the parental peptide) |
| chain 1 F15M | 0.0729 log2 (difference from the parental peptide) |
| chain 1 F15D | -4.04 log2 (difference from the parental peptide) |
| chain 1 F15P | -0.512 log2 (difference from the parental peptide) |
| chain 1 F15C | -5.58 log2 (difference from the parental peptide) |
| chain 1 F15Q | -0.376 log2 (difference from the parental peptide) |
| chain 1 F15S | -0.989 log2 (difference from the parental peptide) |
| chain 1 F15L | 0.128 log2 (difference from the parental peptide) |
| chain 1 F15W | -0.236 log2 (difference from the parental peptide) |
| chain 1 D4F | -2.31 log2 (difference from the parental peptide) |
| chain 1 D4R | -2.64 log2 (difference from the parental peptide) |
| chain 1 D4Y | -1.35 log2 (difference from the parental peptide) |
| chain 1 D4P | -1.34 log2 (difference from the parental peptide) |
| chain 1 D4Q | -1.98 log2 (difference from the parental peptide) |
| chain 1 D4W | -1.54 log2 (difference from the parental peptide) |

| Variant | enrichment |
| --- | --- |
| chain 1 D4N | -1.99 log2 (difference from the parental peptide) |
| chain 1 D4G | -2.83 log2 (difference from the parental peptide) |
| chain 1 D4E | -0.211 log2 (difference from the parental peptide) |
| chain 1 D4V | -3.19 log2 (difference from the parental peptide) |
| chain 1 D4K | -2.75 log2 (difference from the parental peptide) |
| chain 1 D4S | -2.31 log2 (difference from the parental peptide) |
| chain 1 D4I | -2.18 log2 (difference from the parental peptide) |
| chain 1 A7R | 1.21 log2 (difference from the parental peptide) |
| chain 1 A7M | 2.23 log2 (difference from the parental peptide) |
| chain 1 A7T | -0.452 log2 (difference from the parental peptide) |
| chain 1 A7I | -0.489 log2 (difference from the parental peptide) |
| chain 1 A7Q | 2.05 log2 (difference from the parental peptide) |
| chain 1 A7H | -0.736 log2 (difference from the parental peptide) |
| chain 1 A7K | 1.7 log2 (difference from the parental peptide) |
| chain 1 A7D | 1.19 log2 (difference from the parental peptide) |
| chain 1 A7Y | -0.717 log2 (difference from the parental peptide) |
| chain 1 A7L | 0.189 log2 (difference from the parental peptide) |
| chain 1 P10G | -8.83 log2 (difference from the parental peptide) |
| chain 1 P10F | -9.61 log2 (difference from the parental peptide) |
| chain 1 P10N | -8.22 log2 (difference from the parental peptide) |
| chain 1 P10A | -7.91 log2 (difference from the parental peptide) |
| chain 1 P10Q | -5.59 log2 (difference from the parental peptide) |
| chain 1 P10L | -9.7 log2 (difference from the parental peptide) |
| chain 1 P10D | -2.21 log2 (difference from the parental peptide) |
| chain 1 P10V | -8.99 log2 (difference from the parental peptide) |

| Variant | enrichment |
| --- | --- |
| chain 1 T12L | 0.858 log2 (difference from the parental peptide) |
| chain 1 T12M | 0.511 log2 (difference from the parental peptide) |
| chain 1 T12P | 1.92 log2 (difference from the parental peptide) |
| chain 1 T12A | -0.729 log2 (difference from the parental peptide) |
| chain 1 T12Y | 0.868 log2 (difference from the parental peptide) |
| chain 1 T12E | -0.867 log2 (difference from the parental peptide) |
| chain 1 T12C | -7.25 log2 (difference from the parental peptide) |
| chain 1 T12R | -2.9 log2 (difference from the parental peptide) |
| chain 1 T12S | -1.43 log2 (difference from the parental peptide) |
| chain 1 T12F | -0.316 log2 (difference from the parental peptide) |
| chain 1 T16A | 1.23 log2 (difference from the parental peptide) |
| chain 1 T16K | -0.439 log2 (difference from the parental peptide) |
| chain 1 T16R | -1.37 log2 (difference from the parental peptide) |
| chain 1 T16Q | 1.05 log2 (difference from the parental peptide) |
| chain 1 T16L | 0.179 log2 (difference from the parental peptide) |
| chain 1 T16N | 0.14 log2 (difference from the parental peptide) |
| chain 1 T16G | 1.32 log2 (difference from the parental peptide) |
| chain 1 T16H | -0.148 log2 (difference from the parental peptide) |
| chain 1 D3I | -2.12 log2 (difference from the parental peptide) |
| chain 1 D3G | -0.0296 log2 (difference from the parental peptide) |
| chain 1 D3R | -3.26 log2 (difference from the parental peptide) |
| chain 1 D3F | -1.57 log2 (difference from the parental peptide) |
| chain 1 D3L | -2.02 log2 (difference from the parental peptide) |
| chain 1 D3E | 0.978 log2 (difference from the parental peptide) |
| chain 1 D3A | -0.703 log2 (difference from the parental peptide) |

| Variant | enrichment |
| --- | --- |
| chain 1 Y5N | -4 log2 (difference from the parental peptide) |
| chain 1 Y5I | -3.26 log2 (difference from the parental peptide) |
| chain 1 Y5V | -3.13 log2 (difference from the parental peptide) |
| chain 1 Y5D | -3.92 log2 (difference from the parental peptide) |
| chain 1 Y5Q | -2.39 log2 (difference from the parental peptide) |
| chain 1 Y5R | -6.25 log2 (difference from the parental peptide) |
| chain 1 Y5A | -4.1 log2 (difference from the parental peptide) |
| chain 1 Y5L | -0.851 log2 (difference from the parental peptide) |
| chain 1 Y5M | -0.412 log2 (difference from the parental peptide) |
| chain 1 Y5W | 1.32 log2 (difference from the parental peptide) |
| chain 1 Y8F | 2.01 log2 (difference from the parental peptide) |
| chain 1 Y8P | -3.81 log2 (difference from the parental peptide) |
| chain 1 Y8D | -6.74 log2 (difference from the parental peptide) |
| chain 1 Y8V | -2.87 log2 (difference from the parental peptide) |
| chain 1 Y8Q | -6.56 log2 (difference from the parental peptide) |
| chain 1 Y8H | -6.18 log2 (difference from the parental peptide) |
| chain 1 Y8G | -6.32 log2 (difference from the parental peptide) |
| chain 1 Y8L | -6.1 log2 (difference from the parental peptide) |
| chain 1 Y8S | -2.05 log2 (difference from the parental peptide) |
| chain 1 T6W | 0.931 log2 (difference from the parental peptide) |
| chain 1 T6Y | -0.339 log2 (difference from the parental peptide) |
| chain 1 T6N | 1.41 log2 (difference from the parental peptide) |
| chain 1 T6I | -4.4 log2 (difference from the parental peptide) |
| chain 1 T6R | 0.592 log2 (difference from the parental peptide) |
| chain 1 T6K | -0.184 log2 (difference from the parental peptide) |

| Variant | enrichment |
| --- | --- |
| chain 1 T6M | 0.172 log2 (difference from the parental peptide) |
| chain 1 T6A | 1.9 log2 (difference from the parental peptide) |
| chain 1 T6F | -2.21 log2 (difference from the parental peptide) |
| chain 1 T6S | 2.9 log2 (difference from the parental peptide) |
| chain 1 E2H | -2.48 log2 (difference from the parental peptide) |
| chain 1 E2N | -3.02 log2 (difference from the parental peptide) |
| chain 1 E2D | -0.0115 log2 (difference from the parental peptide) |
| chain 1 E2T | -2.6 log2 (difference from the parental peptide) |
| chain 1 E2K | -3.34 log2 (difference from the parental peptide) |
| chain 1 E2R | -3.87 log2 (difference from the parental peptide) |
| chain 1 E2M | -1.79 log2 (difference from the parental peptide) |
| chain 1 E2V | -1.58 log2 (difference from the parental peptide) |
| chain 1 E2S | -2.49 log2 (difference from the parental peptide) |
| chain 1 A9F | -8.36 log2 (difference from the parental peptide) |
| chain 1 A9E | -0.109 log2 (difference from the parental peptide) |
| chain 1 A9I | -10.2 log2 (difference from the parental peptide) |
| chain 1 A9M | -4.18 log2 (difference from the parental peptide) |
| chain 1 A9P | -6 log2 (difference from the parental peptide) |
| chain 1 A9H | -4.5 log2 (difference from the parental peptide) |
| chain 1 A9Y | -7.05 log2 (difference from the parental peptide) |
| chain 1 A9Q | -0.732 log2 (difference from the parental peptide) |
| chain 1 A9K | -2.18 log2 (difference from the parental peptide) |
| chain 1 A9N | -5.05 log2 (difference from the parental peptide) |
| chain 1 A9L | -7.81 log2 (difference from the parental peptide) |
| chain 1 A9C | -10.3 log2 (difference from the parental peptide) |

Source: paper PMC11969024 (2025)
